This passage reports percent of parent results from publication PMC5582869.

The labels stand for the following.
B1: human ZDHHC6 (WT), Myc-tagged [human] / human ZDHHC6 (WT), Myc-tagged [human] (parent)
chain 1: MGTFCSVIKFENLQELKRLCHWGPIIALGVIAICSTMAMIDSVLWYWPLHTTGGSVNFIMLINWTVMILYNYFNAMFVGPGFVPLGWKPEISQDTMYLQYCKVCQAYKAPRSHHCRKCNRCVMKMDHHCPWINNCCGYQNHASFTLFLLLAPLGCIHAAFIFVMTMYTQLYHRLSFGWNTVKIDMSAARRDPLPIVPFGLAAFATTLFALGLALGTTIAVGMLFFIQMKIILRNKTSIESWIEEKAKDRIQYYQLDEVFVFPYDMGSRWRNFKQVFTWSGVPEGDGLEWPVREGCHQYSLTIEQLKQKADKRVRSVRYKVIEDYSGACCPLNKGIKTFFTSPCTEEPRIQLQKGEFILATRGLRYWLYGDKILDDSFIEGVSRIRGWFPRKCVEKCPCDAETDQAPEGEKKNR
chain 2: B1 chain 1

Variants of B1 are the subject of the assay. Put plainly: co-immunoprecipitation (IP with myc antibodies, anti-GFP immunoblot, densitometry). The following applies: HeLa cells transfected for 24 hr, n = 4, parent: 100, read off a plot.
For chain 1 MGTFCSVIKFENLQELKRLCHWGPIIALGVIAICSTMAMIDSVLWYWPLHTTGGSVNFIMLINWTVMILYNYFNAMFVGPGFVPLGWKPEISQDTMYLQYCKVCQAYKAPRSHHCRKCNRCVMKMDHHCPWINNCCGYQNHASFTLFLLLAPLGCIHAAFIFVMTMYTQLYHRLSFGWNTVKIDMSAARRDPLPIVPFGLAAFATTLFALGLALGTTIAVGMLFFIQMKIILRNKTSIESWIEEKAKDRIQYYQLDEVFVFPYDMGSRWRNFKQVFTWSGVPEGDGLEWPVREGCHQYSLTIEQLKQKADKRVRSVRYKVIEDYSGAAAPLNKGIKTFFTSPATEEPRIQLQKGEFILATRGLRYWLYGDKILDDSFIEGVSRIRGWFPRKCVEKCPCDAETDQAPEGEKKNR [chain 1 C328A C329A C343A], the percent of parent is 39 % of WT.
